Laboratory results taken from US20250388702A1 (Dana-Farber, published 2025).

Experiments:
Assay in all cases: cell microarray on transfected HEK293 cells, HHLA2-mIgG2a probe, AF647 anti-mouse IgG detection
KIR3DL1 = molecular target: T1, KIR3DL1 (UniProt P43629 22-444, limits assumed)
T1 construct: whole, on cells
Protocol: (§1) A library of ˜5500 full length cDNA clones covering more than 3,500 different plasma membrane proteins was arrayed in duplicate across 13 microarray slides (“slide sets”). Human HEK293 cells were grown above the cDNA clones and reverse-transfected. An expression vector (pIRES-hEGFR-IRES-ZsGreen1) was spotted in quadruplicate on every slide and was used to ensure that a minimal threshold of transfection efficiency had been achieved or exceeded on every slide.
(§2) Two replicate slides were screened for each of the 13 slide sets. Fluorescent images were analyzed and quantitated (for transfection efficiency) using ImageQuant software (GE). A protein ‘hit’ was defined as duplicate spots showing a raised signal compared to background levels. This was achieved by visual inspection using the images gridded on the ImageQuant software.

KIR2DL4 = molecular target: T2, KIR2DL4 (UniProt Q99706 22-377, limits assumed)
T2 construct: whole, on cells
T2 sequence (Q99706 22-377 limits assumed): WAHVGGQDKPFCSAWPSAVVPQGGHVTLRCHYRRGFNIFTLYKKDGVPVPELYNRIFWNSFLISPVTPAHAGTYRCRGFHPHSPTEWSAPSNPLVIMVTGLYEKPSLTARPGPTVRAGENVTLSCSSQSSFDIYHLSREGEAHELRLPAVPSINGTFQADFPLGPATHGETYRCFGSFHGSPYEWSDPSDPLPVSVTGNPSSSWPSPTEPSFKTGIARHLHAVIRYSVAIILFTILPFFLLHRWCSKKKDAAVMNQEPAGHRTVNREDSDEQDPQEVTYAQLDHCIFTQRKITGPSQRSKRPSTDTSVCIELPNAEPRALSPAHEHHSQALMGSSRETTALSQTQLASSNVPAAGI
Protocol: as §1, §2

KIR2DL2 = molecular target: T3, KIR2DL2 (UniProt P43627 22-348, limits assumed)
T3 construct: whole, on cells
T3 sequence (P43627 22-348 limits assumed): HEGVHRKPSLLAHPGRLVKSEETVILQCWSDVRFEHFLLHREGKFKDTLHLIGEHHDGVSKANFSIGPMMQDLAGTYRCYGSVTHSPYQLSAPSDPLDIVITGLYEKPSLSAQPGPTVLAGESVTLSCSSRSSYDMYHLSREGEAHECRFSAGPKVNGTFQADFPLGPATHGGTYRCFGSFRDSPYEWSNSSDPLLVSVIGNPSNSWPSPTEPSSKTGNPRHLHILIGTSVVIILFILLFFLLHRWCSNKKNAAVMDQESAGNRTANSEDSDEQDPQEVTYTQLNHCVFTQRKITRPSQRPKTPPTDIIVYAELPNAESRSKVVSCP
Protocol: as §1, §2

KIR3DL2 = molecular target: T4, KIR3DL2 (UniProt P43630 22-455, limits assumed)
T4 construct: whole, on cells
T4 sequence (P43630 22-455 limits assumed): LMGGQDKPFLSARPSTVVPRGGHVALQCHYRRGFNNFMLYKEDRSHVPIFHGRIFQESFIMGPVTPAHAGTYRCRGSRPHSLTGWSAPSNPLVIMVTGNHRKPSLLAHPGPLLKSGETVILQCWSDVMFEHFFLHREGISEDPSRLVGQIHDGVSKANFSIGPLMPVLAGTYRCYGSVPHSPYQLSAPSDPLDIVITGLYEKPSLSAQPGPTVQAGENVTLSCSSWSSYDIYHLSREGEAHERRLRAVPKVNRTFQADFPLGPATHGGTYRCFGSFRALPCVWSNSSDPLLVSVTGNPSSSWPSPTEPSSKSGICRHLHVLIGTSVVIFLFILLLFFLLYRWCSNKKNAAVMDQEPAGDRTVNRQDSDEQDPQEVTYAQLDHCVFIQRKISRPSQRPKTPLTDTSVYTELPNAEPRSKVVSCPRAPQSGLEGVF
Protocol: as §1, §2

KIR2DL5A = molecular target: T5, KIR2DL5A (UniProt Q8N109 22-375, limits assumed)
T5 construct: whole, on cells
T5 sequence (Q8N109 22-375 limits assumed): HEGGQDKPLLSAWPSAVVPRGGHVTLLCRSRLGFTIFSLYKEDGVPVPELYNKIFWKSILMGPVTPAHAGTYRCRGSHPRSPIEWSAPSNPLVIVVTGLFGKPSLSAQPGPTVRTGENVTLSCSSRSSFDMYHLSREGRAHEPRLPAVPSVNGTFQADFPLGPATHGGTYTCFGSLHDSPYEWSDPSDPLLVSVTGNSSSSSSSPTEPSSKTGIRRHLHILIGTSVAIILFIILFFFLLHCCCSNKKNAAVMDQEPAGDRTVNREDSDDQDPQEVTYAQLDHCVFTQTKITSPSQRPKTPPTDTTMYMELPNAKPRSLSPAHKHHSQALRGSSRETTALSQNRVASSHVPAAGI
Protocol: as §1, §2

KIR2DL1 = molecular target: T6, KIR2DL1 (UniProt P43626 22-348, limits assumed)
T6 construct: whole, on cells
T6 sequence (P43626 22-348 limits assumed): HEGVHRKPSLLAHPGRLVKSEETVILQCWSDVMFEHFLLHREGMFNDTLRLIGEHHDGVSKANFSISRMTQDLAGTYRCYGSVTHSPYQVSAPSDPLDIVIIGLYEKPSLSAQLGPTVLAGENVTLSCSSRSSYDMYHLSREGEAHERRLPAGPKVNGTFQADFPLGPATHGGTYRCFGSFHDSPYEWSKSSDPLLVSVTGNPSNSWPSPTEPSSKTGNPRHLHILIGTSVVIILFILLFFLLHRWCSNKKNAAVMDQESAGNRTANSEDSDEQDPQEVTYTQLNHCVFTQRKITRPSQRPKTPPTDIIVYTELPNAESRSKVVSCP
Protocol: as §1, §2

KIR2DL5B = molecular target: T7, KIR2DL5B (UniProt Q8NHK3 22-375, limits assumed)
T7 construct: whole, on cells
T7 sequence (Q8NHK3 22-375 limits assumed): as the sequence (Q8N109 22-375 limits assumed) above, with N152D, G174S counted along it
Protocol: as §1, §2

Human HHLA2 = molecular target: T8, Human HHLA2 (human, UniProt Q9UM44 23-414)
T8 construct: also called B7-H7; B7-H5
T8 sequence: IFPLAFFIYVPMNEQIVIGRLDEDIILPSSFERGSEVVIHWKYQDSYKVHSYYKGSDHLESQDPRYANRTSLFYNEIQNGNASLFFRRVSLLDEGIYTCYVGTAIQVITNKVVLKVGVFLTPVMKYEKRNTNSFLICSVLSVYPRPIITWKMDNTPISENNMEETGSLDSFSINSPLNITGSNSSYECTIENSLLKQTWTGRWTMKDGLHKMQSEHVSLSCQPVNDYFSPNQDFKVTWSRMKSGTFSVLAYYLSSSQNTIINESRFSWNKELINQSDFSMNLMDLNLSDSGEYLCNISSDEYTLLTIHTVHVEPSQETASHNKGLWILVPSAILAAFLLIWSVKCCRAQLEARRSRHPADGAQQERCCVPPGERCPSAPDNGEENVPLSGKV
Protocol: as §1, §2

EGFR = molecular target: T9, EGFR (human, UniProt P00533 25-1210)
T9 construct: whole, on cells; also called hEGFR
Protocol: as §1, §2

Measured: binding result

T1 sequence (P43629 22-444 limits assumed): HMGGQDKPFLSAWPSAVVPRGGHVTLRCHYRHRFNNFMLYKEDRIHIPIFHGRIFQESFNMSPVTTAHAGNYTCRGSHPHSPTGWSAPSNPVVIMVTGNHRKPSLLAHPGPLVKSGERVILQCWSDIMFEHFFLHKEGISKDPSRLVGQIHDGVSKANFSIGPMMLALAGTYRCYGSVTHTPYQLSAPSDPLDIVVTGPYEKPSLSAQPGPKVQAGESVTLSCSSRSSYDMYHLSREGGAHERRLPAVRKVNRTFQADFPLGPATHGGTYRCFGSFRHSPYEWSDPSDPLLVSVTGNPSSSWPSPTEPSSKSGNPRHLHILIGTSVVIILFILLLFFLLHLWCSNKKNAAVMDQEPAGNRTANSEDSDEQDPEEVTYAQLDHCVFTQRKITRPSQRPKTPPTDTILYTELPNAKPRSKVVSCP

B1: Human HHLA2-mIgG2a fusion protein (Fc fusion)
chain: IFPLAFFIYVPMNEQIVIGRLDEDIILPSSFERGSEVVIHWKYQDSYKVHSYYKGSDHLESQDPRYANRTSLFYNEIQNGNASLFFRRVSLLDEGIYTCYVGTAIQVITNKVVLKVGVFLTPVMKYEKRNTNSFLICSVLSVYPRPIITWKMDNTPISENNMEETGSLDSFSINSPLNITGSNSSYECTIENSLLKQTWTGRWTMKDGLHKMQSEHVSLSCQPVNDYFSPNQDFKVTWSRMKSGTFSVLAYYLSSSQNTIINESRFSWNKELINQSDFSMNLMDLNLSDSGEYLCNISSDEYTLLTIHTVHVEPSQETASHN
notes: also called HHLA2-Ig; HHLA2-mouse IgG2a; not shown: mutated at IgG2a L235E, E318A, K320A, K322A
no binding (tested: 20 ug/ml): all assays above
